In US12679878B2, “CRF2 receptor agonists and their use in therapy” (SANOFI, priority 2020, dated 2026):
Starred links: 1 amine or outer side, 2 acyl side, 3 side chain; linkers in the order of their positions; H or OH if unused. Non-standard residues stand in square brackets, D forms with d. Groups on a side chain read outwards from the residue. No end group written: not given here. *: point of attachment. C18 diacid = O=C(O)CCCCCCCCCCCCCCCCC(=O)*; γGlu = O=C(O)[C@H](CCC(=O)[*:2])N[*:1]; AEEA = NCCOCCOCC(=O)O; Aib = CC(C)(N)C(=O)O

T1: anti-target CRF1R receptor (UniProt P34998 24-415, limits assumed)
T1 sequence (looked up): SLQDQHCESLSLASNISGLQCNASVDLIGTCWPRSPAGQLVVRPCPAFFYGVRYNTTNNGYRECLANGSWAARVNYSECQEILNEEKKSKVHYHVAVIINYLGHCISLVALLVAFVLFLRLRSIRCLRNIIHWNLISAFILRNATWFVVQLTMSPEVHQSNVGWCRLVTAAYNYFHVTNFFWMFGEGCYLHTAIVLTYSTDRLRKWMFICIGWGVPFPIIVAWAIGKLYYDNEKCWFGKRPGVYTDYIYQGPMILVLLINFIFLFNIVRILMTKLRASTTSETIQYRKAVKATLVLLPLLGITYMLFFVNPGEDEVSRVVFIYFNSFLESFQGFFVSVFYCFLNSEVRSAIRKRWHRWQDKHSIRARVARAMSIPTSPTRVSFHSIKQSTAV


What was measured:
[1] = target: T1, anti-target CRF1R receptor; assay: cell-based or functional assay
rat CRF2R α receptor = rat CRF2R α receptor (rat, UniProt P47866 20-411); assay: cell-based or functional assay
Sequence of rat CRF2R α receptor (P47866 20-411): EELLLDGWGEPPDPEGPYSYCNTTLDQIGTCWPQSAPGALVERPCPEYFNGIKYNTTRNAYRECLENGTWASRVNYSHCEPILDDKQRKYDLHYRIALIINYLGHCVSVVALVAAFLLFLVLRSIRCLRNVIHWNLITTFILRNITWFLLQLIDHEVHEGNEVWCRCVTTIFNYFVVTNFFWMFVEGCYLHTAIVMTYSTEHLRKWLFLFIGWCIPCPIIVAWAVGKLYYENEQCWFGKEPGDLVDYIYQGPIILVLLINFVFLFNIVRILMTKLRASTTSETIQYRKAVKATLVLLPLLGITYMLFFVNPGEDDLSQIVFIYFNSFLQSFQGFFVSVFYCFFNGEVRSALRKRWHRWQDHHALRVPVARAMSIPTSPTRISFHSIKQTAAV

Binder	EC50[nM] 0% HSA (cAMP, CRF1R-overexpression CHO cells) [1] [nM]	Emax (%) (cAMP, CRF1R-overexpression CHO cells) [1]	EC50 [nM], 0% HSA (cAMP, A7R5 cells) (rat CRF2R α receptor) [nM]
IVLSLDVPIKLK([AEEA-AEEA-γGlu-C18 diacid])KILLKQERQKK[Aib]REQAEKNKQILAQV-NH2 (N-terminus assumed; SMILES CC[C@H](C)[C@H](N)C(=O)N[C@H](C(=O)N[C@@H](CC(C)C)C(=O)N[C@@H](CO)C(=O)N[C@@H](CC(C)C)C(=O)N[C@@H](CC(=O)O)C(=O)N[C@H](C(=O)N1CCC[C@H]1C(=O)N[C@H](C(=O)N[C@@H](CCCCN)C(=O)N[C@@H](CC(C)C)C(=O)N[C@@H](CCCCNC(=O)COCCOCCNC(=O)COCCOCCNC(=O)CC[C@H](NC(=O)CCCCCCCCCCCCCCCCC(=O)O)C(=O)O)C(=O)N[C@@H](CCCCN)C(=O)N[C@H](C(=O)N[C@@H](CC(C)C)C(=O)N[C@@H](CC(C)C)C(=O)N[C@@H](CCCCN)C(=O)N[C@@H](CCC(N)=O)C(=O)N[C@@H](CCC(=O)O)C(=O)N[C@@H](CCCNC(=N)N)C(=O)N[C@@H](CCC(N)=O)C(=O)N[C@@H](CCCCN)C(=O)N[C@@H](CCCCN)C(=O)NC(C)(C)C(=O)N[C@@H](CCCNC(=N)N)C(=O)N[C@@H](CCC(=O)O)C(=O)N[C@@H](CCC(N)=O)C(=O)N[C@@H](C)C(=O)N[C@@H](CCC(=O)O)C(=O)N[C@@H](CCCCN)C(=O)N[C@@H](CC(N)=O)C(=O)N[C@@H](CCCCN)C(=O)N[C@@H](CCC(N)=O)C(=O)N[C@H](C(=O)N[C@@H](CC(C)C)C(=O)N[C@@H](C)C(=O)N[C@@H](CCC(N)=O)C(=O)N[C@H](C(N)=O)C(C)C)[C@@H](C)CC)[C@@H](C)CC)[C@@H](C)CC)C(C)C)C(C)C) [peptide of SEQ ID NO: 99]	> 1000	3.25	0.62
IVLSLD[dV]PIKLK([AEEA-AEEA-γGlu-C18 diacid])QILLKQERQKK[Aib]RQKAEKNKQILAQV-NH2 (N-terminus assumed; SMILES CC[C@H](C)[C@H](N)C(=O)N[C@H](C(=O)N[C@@H](CC(C)C)C(=O)N[C@@H](CO)C(=O)N[C@@H](CC(C)C)C(=O)N[C@@H](CC(=O)O)C(=O)N[C@@H](C(=O)N1CCC[C@H]1C(=O)N[C@H](C(=O)N[C@@H](CCCCN)C(=O)N[C@@H](CC(C)C)C(=O)N[C@@H](CCCCNC(=O)COCCOCCNC(=O)COCCOCCNC(=O)CC[C@H](NC(=O)CCCCCCCCCCCCCCCCC(=O)O)C(=O)O)C(=O)N[C@@H](CCC(N)=O)C(=O)N[C@H](C(=O)N[C@@H](CC(C)C)C(=O)N[C@@H](CC(C)C)C(=O)N[C@@H](CCCCN)C(=O)N[C@@H](CCC(N)=O)C(=O)N[C@@H](CCC(=O)O)C(=O)N[C@@H](CCCNC(=N)N)C(=O)N[C@@H](CCC(N)=O)C(=O)N[C@@H](CCCCN)C(=O)N[C@@H](CCCCN)C(=O)NC(C)(C)C(=O)N[C@@H](CCCNC(=N)N)C(=O)N[C@@H](CCC(N)=O)C(=O)N[C@@H](CCCCN)C(=O)N[C@@H](C)C(=O)N[C@@H](CCC(=O)O)C(=O)N[C@@H](CCCCN)C(=O)N[C@@H](CC(N)=O)C(=O)N[C@@H](CCCCN)C(=O)N[C@@H](CCC(N)=O)C(=O)N[C@H](C(=O)N[C@@H](CC(C)C)C(=O)N[C@@H](C)C(=O)N[C@@H](CCC(N)=O)C(=O)N[C@H](C(N)=O)C(C)C)[C@@H](C)CC)[C@@H](C)CC)[C@@H](C)CC)C(C)C)C(C)C) [peptide of SEQ ID NO: 136]	> 1000	21.8	0.38
IVLSLDVPIKLK([AEEA-AEEA-γGlu-C18 diacid])QILLKQERQKKQREKAKTNKQILAQV-NH2 (N-terminus assumed; SMILES CC[C@H](C)[C@H](N)C(=O)N[C@H](C(=O)N[C@@H](CC(C)C)C(=O)N[C@@H](CO)C(=O)N[C@@H](CC(C)C)C(=O)N[C@@H](CC(=O)O)C(=O)N[C@H](C(=O)N1CCC[C@H]1C(=O)N[C@H](C(=O)N[C@@H](CCCCN)C(=O)N[C@@H](CC(C)C)C(=O)N[C@@H](CCCCNC(=O)COCCOCCNC(=O)COCCOCCNC(=O)CC[C@H](NC(=O)CCCCCCCCCCCCCCCCC(=O)O)C(=O)O)C(=O)N[C@@H](CCC(N)=O)C(=O)N[C@H](C(=O)N[C@@H](CC(C)C)C(=O)N[C@@H](CC(C)C)C(=O)N[C@@H](CCCCN)C(=O)N[C@@H](CCC(N)=O)C(=O)N[C@@H](CCC(=O)O)C(=O)N[C@@H](CCCNC(=N)N)C(=O)N[C@@H](CCC(N)=O)C(=O)N[C@@H](CCCCN)C(=O)N[C@@H](CCCCN)C(=O)N[C@@H](CCC(N)=O)C(=O)N[C@@H](CCCNC(=N)N)C(=O)N[C@@H](CCC(=O)O)C(=O)N[C@@H](CCCCN)C(=O)N[C@@H](C)C(=O)N[C@@H](CCCCN)C(=O)N[C@H](C(=O)N[C@@H](CC(N)=O)C(=O)N[C@@H](CCCCN)C(=O)N[C@@H](CCC(N)=O)C(=O)N[C@H](C(=O)N[C@@H](CC(C)C)C(=O)N[C@@H](C)C(=O)N[C@@H](CCC(N)=O)C(=O)N[C@H](C(N)=O)C(C)C)[C@@H](C)CC)[C@@H](C)O)[C@@H](C)CC)[C@@H](C)CC)C(C)C)C(C)C) [peptide of SEQ ID NO: 87]	> 1000	-0.2	1.49
IVLSLDVPIKLK([AEEA-AEEA-γGlu-C18 diacid])KILLKQERQKK[Aib]REQAETN[Aib]QILAQV-NH2 (N-terminus assumed; SMILES CC[C@H](C)[C@H](N)C(=O)N[C@H](C(=O)N[C@@H](CC(C)C)C(=O)N[C@@H](CO)C(=O)N[C@@H](CC(C)C)C(=O)N[C@@H](CC(=O)O)C(=O)N[C@H](C(=O)N1CCC[C@H]1C(=O)N[C@H](C(=O)N[C@@H](CCCCN)C(=O)N[C@@H](CC(C)C)C(=O)N[C@@H](CCCCNC(=O)COCCOCCNC(=O)COCCOCCNC(=O)CC[C@H](NC(=O)CCCCCCCCCCCCCCCCC(=O)O)C(=O)O)C(=O)N[C@@H](CCCCN)C(=O)N[C@H](C(=O)N[C@@H](CC(C)C)C(=O)N[C@@H](CC(C)C)C(=O)N[C@@H](CCCCN)C(=O)N[C@@H](CCC(N)=O)C(=O)N[C@@H](CCC(=O)O)C(=O)N[C@@H](CCCNC(=N)N)C(=O)N[C@@H](CCC(N)=O)C(=O)N[C@@H](CCCCN)C(=O)N[C@@H](CCCCN)C(=O)NC(C)(C)C(=O)N[C@@H](CCCNC(=N)N)C(=O)N[C@@H](CCC(=O)O)C(=O)N[C@@H](CCC(N)=O)C(=O)N[C@@H](C)C(=O)N[C@@H](CCC(=O)O)C(=O)N[C@H](C(=O)N[C@@H](CC(N)=O)C(=O)NC(C)(C)C(=O)N[C@@H](CCC(N)=O)C(=O)N[C@H](C(=O)N[C@@H](CC(C)C)C(=O)N[C@@H](C)C(=O)N[C@@H](CCC(N)=O)C(=O)N[C@H](C(N)=O)C(C)C)[C@@H](C)CC)[C@@H](C)O)[C@@H](C)CC)[C@@H](C)CC)C(C)C)C(C)C) [peptide of SEQ ID NO: 100]	> 1000	5.06	7.52
IVLSLD[dV]PIKLK([AEEA-AEEA-γGlu-C18 diacid])QILLEQERQK[Aib]QREQAEKNKQILERV-NH2 (N-terminus assumed; SMILES CC[C@H](C)[C@H](N)C(=O)N[C@H](C(=O)N[C@@H](CC(C)C)C(=O)N[C@@H](CO)C(=O)N[C@@H](CC(C)C)C(=O)N[C@@H](CC(=O)O)C(=O)N[C@@H](C(=O)N1CCC[C@H]1C(=O)N[C@H](C(=O)N[C@@H](CCCCN)C(=O)N[C@@H](CC(C)C)C(=O)N[C@@H](CCCCNC(=O)COCCOCCNC(=O)COCCOCCNC(=O)CC[C@H](NC(=O)CCCCCCCCCCCCCCCCC(=O)O)C(=O)O)C(=O)N[C@@H](CCC(N)=O)C(=O)N[C@H](C(=O)N[C@@H](CC(C)C)C(=O)N[C@@H](CC(C)C)C(=O)N[C@@H](CCC(=O)O)C(=O)N[C@@H](CCC(N)=O)C(=O)N[C@@H](CCC(=O)O)C(=O)N[C@@H](CCCNC(=N)N)C(=O)N[C@@H](CCC(N)=O)C(=O)N[C@@H](CCCCN)C(=O)NC(C)(C)C(=O)N[C@@H](CCC(N)=O)C(=O)N[C@@H](CCCNC(=N)N)C(=O)N[C@@H](CCC(=O)O)C(=O)N[C@@H](CCC(N)=O)C(=O)N[C@@H](C)C(=O)N[C@@H](CCC(=O)O)C(=O)N[C@@H](CCCCN)C(=O)N[C@@H](CC(N)=O)C(=O)N[C@@H](CCCCN)C(=O)N[C@@H](CCC(N)=O)C(=O)N[C@H](C(=O)N[C@@H](CC(C)C)C(=O)N[C@@H](CCC(=O)O)C(=O)N[C@@H](CCCNC(=N)N)C(=O)N[C@H](C(N)=O)C(C)C)[C@@H](C)CC)[C@@H](C)CC)[C@@H](C)CC)C(C)C)C(C)C) [peptide of SEQ ID NO: 132]	> 1000	36.9	0.79
